Assay results reported in publication PMC8927971.

Tested on: CIZ1 N571 (GST-N571) (Mus musculus)
Assay: EMSA
Details: 0.3 nM RNA; 10 mM Tris-HCl pH 7.5, 30 mM NaCl, 2.5 mM MgCl2, 0.2 mM DTT, 0.1% IGEPAL CA-630, 0.1 mg/ml yeast tRNA, 0.4 U RNaseOUT, 1% glycerol; 30 C 20 min; 0.7% agarose …

| Substance | K half [nM] |
| --- | --- |
| Xist repeat A | 200 |
| Xist repeat E proximal | 100 |
